The values that follow come from patent US20020152485A1 (BOSTON HEART FOUNDATION, published 2002).

Assay [1] concerns the target T1, native human low density lipoprotein (LDL) (human, UniProt P04114 28-4563).
T1 construct: This is a lipoprotein particle (protein plus lipid), not an isolated polypeptide; also called native LDL; cold LDL
As to the kind of experiment: affinity coelectrophoresis (ACE): 125I-LBP-3 run through LDL cast in agarose; binding curve. The procedure:
(§1) Analysis of the affinity and specificity of recombinant rabbit LBP-1, LBP-2 or LBP-3 binding to LDL was carried out using the principle of affinity electrophoresis (Lee and Lander, Proc. Natl. Acad. Sci. USA 88:2768-2772 (1991)). Melted agarose (1%; 65° C.) was prepared in 50 mM sodium MOPS, pH 7.0; 125 mM sodium acetate, 0.5% CHAPS. A teflon comb consisting of nine parallel bars (45×4×4 mm/3 mm spacing between bars) was placed onto GelBond film (FMC Bioproducts, Rockland, Me.) fitted to a plexiglass casting tray with the long axis of the bars parallel to the long axis of the casting tray. A teflon strip (66×1×1 mm) was placed on edge with the long axis parallel to the short axis of the casting tray, at a distance of 4 mm from the edge of the teflon comb. Melted agarose (>65° C.) was then poured to achieve a height of approximately 4 mm. […] LDL or HDL samples were prepared in gel buffer (50 mM sodium MOPS, pH 7.0, 125 mM sodium acetate) at twice the desired concentration. Samples were then mixed with an equal volume of melted agarose (in 50 mM MOPS, pH 7.0; 125 mM sodium acetate; 50° C.), pipetted into the appropriate rectangular wells and allowed to gel. The binding affinity and specificity of LBP-1 and LBP-3 was tested using several concentrations of LDL (540 to 14 nM) and HDL (2840177 nM). […]

The target of assay [2] is T1, native human low density lipoprotein …. As to the kind of experiment: affinity coelectrophoresis (ACE): 125I-LBP-2 run through LDL cast in agarose; binding curve. The procedure:
as §1

T1 sequence (P04114 28-4563): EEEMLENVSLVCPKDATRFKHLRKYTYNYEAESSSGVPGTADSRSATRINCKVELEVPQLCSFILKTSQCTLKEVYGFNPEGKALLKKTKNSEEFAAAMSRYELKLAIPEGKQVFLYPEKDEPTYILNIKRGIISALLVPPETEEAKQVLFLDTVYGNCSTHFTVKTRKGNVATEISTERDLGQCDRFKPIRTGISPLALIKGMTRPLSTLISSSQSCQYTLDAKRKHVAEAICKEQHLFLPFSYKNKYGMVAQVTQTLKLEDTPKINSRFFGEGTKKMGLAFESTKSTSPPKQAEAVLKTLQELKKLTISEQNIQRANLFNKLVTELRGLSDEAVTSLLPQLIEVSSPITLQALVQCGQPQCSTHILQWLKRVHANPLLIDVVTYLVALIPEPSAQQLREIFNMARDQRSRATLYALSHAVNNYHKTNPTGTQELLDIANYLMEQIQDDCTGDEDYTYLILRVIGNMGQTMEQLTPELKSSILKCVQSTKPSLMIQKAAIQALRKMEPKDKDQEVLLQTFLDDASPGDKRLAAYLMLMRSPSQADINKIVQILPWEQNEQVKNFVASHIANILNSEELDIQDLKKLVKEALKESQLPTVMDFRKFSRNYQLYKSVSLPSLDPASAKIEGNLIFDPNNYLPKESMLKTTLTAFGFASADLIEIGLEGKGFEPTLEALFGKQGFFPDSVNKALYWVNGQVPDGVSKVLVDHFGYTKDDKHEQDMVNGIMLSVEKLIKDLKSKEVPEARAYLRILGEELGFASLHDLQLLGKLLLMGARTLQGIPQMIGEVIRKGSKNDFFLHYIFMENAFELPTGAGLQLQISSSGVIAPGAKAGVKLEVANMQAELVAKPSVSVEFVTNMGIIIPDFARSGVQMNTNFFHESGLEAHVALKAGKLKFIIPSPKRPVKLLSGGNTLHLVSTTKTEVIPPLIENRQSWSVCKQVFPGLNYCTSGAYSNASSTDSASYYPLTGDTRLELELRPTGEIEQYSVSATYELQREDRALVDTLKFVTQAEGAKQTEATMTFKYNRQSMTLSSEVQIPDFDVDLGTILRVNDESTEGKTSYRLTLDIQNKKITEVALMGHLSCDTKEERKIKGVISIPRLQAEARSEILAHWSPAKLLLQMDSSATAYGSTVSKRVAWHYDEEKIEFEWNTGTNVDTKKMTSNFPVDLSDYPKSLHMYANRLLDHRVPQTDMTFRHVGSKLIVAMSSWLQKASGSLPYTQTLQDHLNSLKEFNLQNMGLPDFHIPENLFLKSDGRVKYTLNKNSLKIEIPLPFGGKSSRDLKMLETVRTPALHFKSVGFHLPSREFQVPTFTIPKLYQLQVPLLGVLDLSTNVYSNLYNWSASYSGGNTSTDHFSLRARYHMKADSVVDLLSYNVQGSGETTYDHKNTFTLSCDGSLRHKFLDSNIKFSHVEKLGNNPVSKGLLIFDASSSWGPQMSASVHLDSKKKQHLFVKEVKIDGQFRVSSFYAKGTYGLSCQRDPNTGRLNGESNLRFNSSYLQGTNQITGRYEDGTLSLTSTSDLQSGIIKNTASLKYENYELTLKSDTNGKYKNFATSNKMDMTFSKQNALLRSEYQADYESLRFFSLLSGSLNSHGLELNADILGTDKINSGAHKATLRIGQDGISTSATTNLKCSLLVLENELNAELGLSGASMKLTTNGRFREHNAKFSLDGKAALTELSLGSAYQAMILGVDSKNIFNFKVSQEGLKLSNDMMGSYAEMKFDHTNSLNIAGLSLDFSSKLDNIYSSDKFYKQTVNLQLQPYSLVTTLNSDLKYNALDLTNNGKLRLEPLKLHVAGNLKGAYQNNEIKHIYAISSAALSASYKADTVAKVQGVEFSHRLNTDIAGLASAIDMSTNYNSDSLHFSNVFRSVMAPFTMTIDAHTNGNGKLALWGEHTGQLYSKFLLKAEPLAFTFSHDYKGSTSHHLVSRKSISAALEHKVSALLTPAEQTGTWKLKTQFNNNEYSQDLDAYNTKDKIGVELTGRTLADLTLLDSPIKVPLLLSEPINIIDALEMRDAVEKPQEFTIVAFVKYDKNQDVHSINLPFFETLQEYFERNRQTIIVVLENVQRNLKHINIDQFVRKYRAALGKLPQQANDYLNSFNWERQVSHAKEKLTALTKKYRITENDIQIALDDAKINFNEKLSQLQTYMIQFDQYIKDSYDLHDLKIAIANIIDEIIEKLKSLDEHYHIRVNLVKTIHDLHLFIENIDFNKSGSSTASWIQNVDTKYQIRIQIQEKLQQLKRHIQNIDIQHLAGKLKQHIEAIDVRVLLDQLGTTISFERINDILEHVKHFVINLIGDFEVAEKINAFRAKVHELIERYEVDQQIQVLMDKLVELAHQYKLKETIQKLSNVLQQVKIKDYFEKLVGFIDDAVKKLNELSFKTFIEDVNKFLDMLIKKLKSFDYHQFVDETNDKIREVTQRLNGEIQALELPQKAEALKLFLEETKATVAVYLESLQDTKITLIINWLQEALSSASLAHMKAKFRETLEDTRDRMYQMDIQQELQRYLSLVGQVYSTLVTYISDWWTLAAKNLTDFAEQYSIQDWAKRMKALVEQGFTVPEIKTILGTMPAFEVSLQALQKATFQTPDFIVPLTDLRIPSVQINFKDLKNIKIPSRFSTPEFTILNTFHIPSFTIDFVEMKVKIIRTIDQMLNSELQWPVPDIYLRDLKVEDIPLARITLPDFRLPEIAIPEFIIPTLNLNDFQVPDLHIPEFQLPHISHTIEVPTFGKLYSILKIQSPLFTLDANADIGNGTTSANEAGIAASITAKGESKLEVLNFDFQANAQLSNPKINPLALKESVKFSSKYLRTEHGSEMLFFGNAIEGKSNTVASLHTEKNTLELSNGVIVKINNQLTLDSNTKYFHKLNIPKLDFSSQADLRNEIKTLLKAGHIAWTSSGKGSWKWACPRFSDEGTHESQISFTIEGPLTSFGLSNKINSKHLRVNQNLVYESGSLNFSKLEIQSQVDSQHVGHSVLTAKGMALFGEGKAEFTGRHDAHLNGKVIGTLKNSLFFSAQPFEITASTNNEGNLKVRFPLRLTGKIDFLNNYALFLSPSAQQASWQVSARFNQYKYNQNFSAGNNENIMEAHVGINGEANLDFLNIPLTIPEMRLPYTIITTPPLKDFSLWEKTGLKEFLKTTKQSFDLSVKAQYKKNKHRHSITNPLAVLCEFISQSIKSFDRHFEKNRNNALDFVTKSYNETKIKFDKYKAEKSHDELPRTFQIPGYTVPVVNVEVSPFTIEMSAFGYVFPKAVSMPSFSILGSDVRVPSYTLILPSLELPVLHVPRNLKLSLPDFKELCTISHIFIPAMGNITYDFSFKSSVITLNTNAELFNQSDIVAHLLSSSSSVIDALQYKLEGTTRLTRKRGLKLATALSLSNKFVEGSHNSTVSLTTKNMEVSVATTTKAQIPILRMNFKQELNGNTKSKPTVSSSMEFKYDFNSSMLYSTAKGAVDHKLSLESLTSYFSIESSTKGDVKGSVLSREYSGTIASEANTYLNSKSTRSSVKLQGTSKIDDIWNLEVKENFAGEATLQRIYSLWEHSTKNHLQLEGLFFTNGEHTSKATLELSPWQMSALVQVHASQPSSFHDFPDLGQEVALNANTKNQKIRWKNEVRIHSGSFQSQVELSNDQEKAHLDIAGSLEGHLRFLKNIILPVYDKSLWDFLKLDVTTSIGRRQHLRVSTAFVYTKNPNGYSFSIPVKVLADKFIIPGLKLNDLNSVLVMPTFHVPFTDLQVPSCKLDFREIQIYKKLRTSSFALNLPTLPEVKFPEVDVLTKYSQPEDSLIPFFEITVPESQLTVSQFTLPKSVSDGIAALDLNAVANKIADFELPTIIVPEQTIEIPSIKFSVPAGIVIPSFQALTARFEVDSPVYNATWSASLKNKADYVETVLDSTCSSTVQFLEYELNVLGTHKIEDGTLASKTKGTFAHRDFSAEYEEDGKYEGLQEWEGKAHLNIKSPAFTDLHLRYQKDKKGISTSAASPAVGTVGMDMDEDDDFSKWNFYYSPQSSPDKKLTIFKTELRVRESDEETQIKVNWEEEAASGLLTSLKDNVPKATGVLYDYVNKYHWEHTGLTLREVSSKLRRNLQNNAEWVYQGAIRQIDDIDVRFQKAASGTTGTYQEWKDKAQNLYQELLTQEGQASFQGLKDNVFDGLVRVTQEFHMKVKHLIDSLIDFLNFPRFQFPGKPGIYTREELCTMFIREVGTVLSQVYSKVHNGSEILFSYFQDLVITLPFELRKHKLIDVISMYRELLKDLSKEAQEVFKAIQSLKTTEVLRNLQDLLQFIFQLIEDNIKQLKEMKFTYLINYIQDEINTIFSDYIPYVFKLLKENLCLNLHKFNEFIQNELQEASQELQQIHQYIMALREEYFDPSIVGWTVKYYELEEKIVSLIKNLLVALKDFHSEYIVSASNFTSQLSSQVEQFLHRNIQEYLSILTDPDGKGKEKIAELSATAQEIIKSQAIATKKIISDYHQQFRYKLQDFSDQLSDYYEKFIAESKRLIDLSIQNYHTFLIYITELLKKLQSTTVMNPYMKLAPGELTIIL

B1: recombinant rabbit LBP-3 (6-His tag) (other)
chain: MKNQDKKNGAAKQPNPKSSPGQPEAGAEGAQGRPGRPAPAREAEGASSQAPGRPEGAQAKTAQPGALCDVSEELSRQLEDILSTYCVDNNQGAPGEDGVQGEPPEPEDAEKSRAYVARNGEPEPGTPVVNGEKETSKAEPGTEEIRTSDEVGDRDHRRPQEKKKAKGLGKEITLLMQTLNTLSTPEEKLAALCKKYAELLEEHRNSQKQMKLLQKKQSQLVQEKDHLRGEHSKAILARSKLESLCRELQRHNRSLKEEGVQRAREEEEKRKEVTSHFQMTLNDIQLQMEQHNERNSKLRQENMELAERLKKLIEQYELREEHIDKVFKHKDLQQQLVDAKLQQAQEMLKEAEERHQREKDFLLKEAVESQRMCELMKQQETHLKQQLALYTEKFEEFQNTLSKSSEVFTTFKQEMEKMTKKIKKLEKETTMYRSRWESSNKALLEMAEEKTLRDKELEGLQVKIQRLEKLCRALQTERNDLNKRVQDLSAGGQGPVSDSGPERRPEPATTSKEQGVEGPGAQVPNSPRATDASCCAGAPSTEASGQTGPQEPTTATA
modifications: 125I-iodinated (Iodobeads) where used as the radiolabeled species in ACE assays
notes: also called LBP-3 (80 kDa fragment); rabbit recombinant LBP-3; not shown: N-terminal 6-histidine tag from the pPROEX-HT vector
Turning to B1, binding in assay [1] was characterised by a dissociation constant (Kd) of 333 nM.

B2: recombinant rabbit LBP-2 clone 26 (6-His tag) (other)
chain: PPPPQQPQPPPEGGAARAGGPARPVSLREVVRYLGGSSGAGGRLTRGRVQGLLEEEAAARGRLERTRLGALALPRGDRPGRAPPAASARAARNKRAGEERVLEKEEEEEEEEDDEDDDDDVVSEGSEVPESDRPAGAQHHQLNGGERGPQTAKERAKEWSLCGPHPGQEEGRGPAAGSGTRQVFSMAALSKEGGSASSTTGPDSPSPVPLPPGKPALPGADGTPFGCPAGRKEKPADPVEWTVMDVVEYFTEAGFPEQATAFQEQEIDGKSLLLMQRTDVLTGLSIRLGPALKIYEHHIKVLQQGHFEDDDPEGFLG
modifications: 125I-iodinated (Iodobeads) where used as the radiolabeled species in ACE assays
notes: Clone 26 contains the acidic region, residues 338-365; also called LBP-2 (rabbit clone 26); clone 26 derived LBP-2; not shown: N-terminal 6-histidine tag from the pPROEX-HT vector
In the case of B2, binding in assay [2] was put at a Kd of 100 nM.
